Source: patent US20140087995A1 (published 2014)
Numbered stars: 1 amine (or outer) side, 2 acyl side, 3 side chain; on linkers, the order of the positions; unused ones are H or OH. Bridge positions count the residues as written; N and C are the ends. Side chains are listed from the residue outwards. Ends that are not written are not given here. * marks the point of attachment. C20 diacid = O=C(O)CCCCCCCCCCCCCCCCCCC(=O)*; γGlu = O=C(O)[C@H](CCC(=O)[*:2])N[*:1]; AEEA = NCCOCCOCC(=O)O

B1: N^ε1-[2-[2-[2-[[(4S)-4-carboxy-4-(19-carboxynonadecanoylamino)butanoyl]amino]ethoxy]ethoxy]acetyl]-[Arg17,Pro21,Pro27,Pro31]-h-amylin (peptide)
peptide: K([AEEA-γGlu-C20 diacid])CNTATCATQRLANFLRHSSPNFGAIPSSTPVGSNTY-NH2
modifications: disulfide 2-7; N-terminus assumed
SMILES: CC[C@H](C)[C@H](NC(=O)[C@H](C)NC(=O)CNC(=O)[C@H](Cc1ccccc1)NC(=O)[C@H](CC(N)=O)NC(=O)[C@@H]1CCCN1C(=O)[C@H](CO)NC(=O)[C@H](CO)NC(=O)[C@H](Cc1c[nH]cn1)NC(=O)[C@H](CCCNC(=N)N)NC(=O)[C@H](CC(C)C)NC(=O)[C@H](Cc1ccccc1)NC(=O)[C@H](CC(N)=O)NC(=O)[C@H](C)NC(=O)[C@H](CC(C)C)NC(=O)[C@H](CCCNC(=N)N)NC(=O)[C@H](CCC(N)=O)NC(=O)[C@@H](NC(=O)[C@H](C)NC(=O)[C@@H]1CSSC[C@H](NC(=O)[C@@H](N)CCCCNC(=O)COCCOCCNC(=O)CC[C@H](NC(=O)CCCCCCCCCCCCCCCCCCC(=O)O)C(=O)O)C(=O)N[C@@H](CC(N)=O)C(=O)N[C@@H]([C@@H](C)O)C(=O)N[C@@H](C)C(=O)N[C@@H]([C@@H](C)O)C(=O)N1)[C@@H](C)O)C(=O)N1CCC[C@H]1C(=O)N[C@@H](CO)C(=O)N[C@@H](CO)C(=O)N[C@H](C(=O)N1CCC[C@H]1C(=O)N[C@H](C(=O)NCC(=O)N[C@@H](CO)C(=O)N[C@@H](CC(N)=O)C(=O)N[C@H](C(=O)N[C@@H](Cc1ccc(O)cc1)C(N)=O)[C@@H](C)O)C(C)C)[C@@H](C)O
notes: also called compound 49
B2: N^ε1-[2-[2-[2-[[(4S)-4-carboxy-4-(19-carboxynonadecanoylamino)butanoyl]amino]ethoxy]ethoxy]acetyl]-[Arg17,Pro21,Pro27]-h-amylin (peptide)
peptide: K([AEEA-γGlu-C20 diacid])CNTATCATQRLANFLRHSSPNFGAIPSSTNVGSNTY-NH2
modifications: disulfide 2-7; N-terminus assumed
SMILES: CC[C@H](C)[C@H](NC(=O)[C@H](C)NC(=O)CNC(=O)[C@H](Cc1ccccc1)NC(=O)[C@H](CC(N)=O)NC(=O)[C@@H]1CCCN1C(=O)[C@H](CO)NC(=O)[C@H](CO)NC(=O)[C@H](Cc1c[nH]cn1)NC(=O)[C@H](CCCNC(=N)N)NC(=O)[C@H](CC(C)C)NC(=O)[C@H](Cc1ccccc1)NC(=O)[C@H](CC(N)=O)NC(=O)[C@H](C)NC(=O)[C@H](CC(C)C)NC(=O)[C@H](CCCNC(=N)N)NC(=O)[C@H](CCC(N)=O)NC(=O)[C@@H](NC(=O)[C@H](C)NC(=O)[C@@H]1CSSC[C@H](NC(=O)[C@@H](N)CCCCNC(=O)COCCOCCNC(=O)CC[C@H](NC(=O)CCCCCCCCCCCCCCCCCCC(=O)O)C(=O)O)C(=O)N[C@@H](CC(N)=O)C(=O)N[C@@H]([C@@H](C)O)C(=O)N[C@@H](C)C(=O)N[C@@H]([C@@H](C)O)C(=O)N1)[C@@H](C)O)C(=O)N1CCC[C@H]1C(=O)N[C@@H](CO)C(=O)N[C@@H](CO)C(=O)N[C@H](C(=O)N[C@@H](CC(N)=O)C(=O)N[C@H](C(=O)NCC(=O)N[C@@H](CO)C(=O)N[C@@H](CC(N)=O)C(=O)N[C@H](C(=O)N[C@@H](Cc1ccc(O)cc1)C(N)=O)[C@@H](C)O)C(C)C)[C@@H](C)O
notes: also called compound 41
B3: N^ε1-[(4S)-4-carboxy-4-(19-carboxynonadecanoylamino)butanoyl]-[Arg17,Pro21,Pro27,Glu35]-h-amylin (peptide)
peptide: K([γGlu-C20 diacid])CNTATCATQRLANFLRHSSPNFGAIPSSTNVGSETY-NH2
modifications: disulfide 2-7; N-terminus assumed
SMILES: CC[C@H](C)[C@H](NC(=O)[C@H](C)NC(=O)CNC(=O)[C@H](Cc1ccccc1)NC(=O)[C@H](CC(N)=O)NC(=O)[C@@H]1CCCN1C(=O)[C@H](CO)NC(=O)[C@H](CO)NC(=O)[C@H](Cc1c[nH]cn1)NC(=O)[C@H](CCCNC(=N)N)NC(=O)[C@H](CC(C)C)NC(=O)[C@H](Cc1ccccc1)NC(=O)[C@H](CC(N)=O)NC(=O)[C@H](C)NC(=O)[C@H](CC(C)C)NC(=O)[C@H](CCCNC(=N)N)NC(=O)[C@H](CCC(N)=O)NC(=O)[C@@H](NC(=O)[C@H](C)NC(=O)[C@@H]1CSSC[C@H](NC(=O)[C@@H](N)CCCCNC(=O)CC[C@H](NC(=O)CCCCCCCCCCCCCCCCCCC(=O)O)C(=O)O)C(=O)N[C@@H](CC(N)=O)C(=O)N[C@@H]([C@@H](C)O)C(=O)N[C@@H](C)C(=O)N[C@@H]([C@@H](C)O)C(=O)N1)[C@@H](C)O)C(=O)N1CCC[C@H]1C(=O)N[C@@H](CO)C(=O)N[C@@H](CO)C(=O)N[C@H](C(=O)N[C@@H](CC(N)=O)C(=O)N[C@H](C(=O)NCC(=O)N[C@@H](CO)C(=O)N[C@@H](CCC(=O)O)C(=O)N[C@H](C(=O)N[C@@H](Cc1ccc(O)cc1)C(N)=O)[C@@H](C)O)C(C)C)[C@@H](C)O
notes: also called compound 27
B4: N^ε1-[(4S)-4-carboxy-4-(19-carboxynonadecanoylamino)butanoyl]-[Arg17,Pro21,Pro27,Lys35]-h-amylin (peptide)
peptide: K([γGlu-C20 diacid])CNTATCATQRLANFLRHSSPNFGAIPSSTNVGSKTY-NH2
modifications: disulfide 2-7; N-terminus assumed
SMILES: CC[C@H](C)[C@H](NC(=O)[C@H](C)NC(=O)CNC(=O)[C@H](Cc1ccccc1)NC(=O)[C@H](CC(N)=O)NC(=O)[C@@H]1CCCN1C(=O)[C@H](CO)NC(=O)[C@H](CO)NC(=O)[C@H](Cc1c[nH]cn1)NC(=O)[C@H](CCCNC(=N)N)NC(=O)[C@H](CC(C)C)NC(=O)[C@H](Cc1ccccc1)NC(=O)[C@H](CC(N)=O)NC(=O)[C@H](C)NC(=O)[C@H](CC(C)C)NC(=O)[C@H](CCCNC(=N)N)NC(=O)[C@H](CCC(N)=O)NC(=O)[C@@H](NC(=O)[C@H](C)NC(=O)[C@@H]1CSSC[C@H](NC(=O)[C@@H](N)CCCCNC(=O)CC[C@H](NC(=O)CCCCCCCCCCCCCCCCCCC(=O)O)C(=O)O)C(=O)N[C@@H](CC(N)=O)C(=O)N[C@@H]([C@@H](C)O)C(=O)N[C@@H](C)C(=O)N[C@@H]([C@@H](C)O)C(=O)N1)[C@@H](C)O)C(=O)N1CCC[C@H]1C(=O)N[C@@H](CO)C(=O)N[C@@H](CO)C(=O)N[C@H](C(=O)N[C@@H](CC(N)=O)C(=O)N[C@H](C(=O)NCC(=O)N[C@@H](CO)C(=O)N[C@@H](CCCCN)C(=O)N[C@H](C(=O)N[C@@H](Cc1ccc(O)cc1)C(N)=O)[C@@H](C)O)C(C)C)[C@@H](C)O
notes: also called compound 35
B5: N^ε1-[(4S)-4-carboxy-4-(19-carboxynonadecanoylamino)butanoyl]-[Arg17,Pro21,Pro27]-h-amylin (peptide)
peptide: K([γGlu-C20 diacid])CNTATCATQRLANFLRHSSPNFGAIPSSTNVGSNTY-NH2
modifications: disulfide 2-7; N-terminus assumed
SMILES: CC[C@H](C)[C@H](NC(=O)[C@H](C)NC(=O)CNC(=O)[C@H](Cc1ccccc1)NC(=O)[C@H](CC(N)=O)NC(=O)[C@@H]1CCCN1C(=O)[C@H](CO)NC(=O)[C@H](CO)NC(=O)[C@H](Cc1c[nH]cn1)NC(=O)[C@H](CCCNC(=N)N)NC(=O)[C@H](CC(C)C)NC(=O)[C@H](Cc1ccccc1)NC(=O)[C@H](CC(N)=O)NC(=O)[C@H](C)NC(=O)[C@H](CC(C)C)NC(=O)[C@H](CCCNC(=N)N)NC(=O)[C@H](CCC(N)=O)NC(=O)[C@@H](NC(=O)[C@H](C)NC(=O)[C@@H]1CSSC[C@H](NC(=O)[C@@H](N)CCCCNC(=O)CC[C@H](NC(=O)CCCCCCCCCCCCCCCCCCC(=O)O)C(=O)O)C(=O)N[C@@H](CC(N)=O)C(=O)N[C@@H]([C@@H](C)O)C(=O)N[C@@H](C)C(=O)N[C@@H]([C@@H](C)O)C(=O)N1)[C@@H](C)O)C(=O)N1CCC[C@H]1C(=O)N[C@@H](CO)C(=O)N[C@@H](CO)C(=O)N[C@H](C(=O)N[C@@H](CC(N)=O)C(=O)N[C@H](C(=O)NCC(=O)N[C@@H](CO)C(=O)N[C@@H](CC(N)=O)C(=O)N[C@H](C(=O)N[C@@H](Cc1ccc(O)cc1)C(N)=O)[C@@H](C)O)C(C)C)[C@@H](C)O
notes: also called compound 48

Legend:
[1] = target: T1, human calcitonin receptor (human, UniProt P30988 25-474); test: ratio of IC50 at hCTR to IC50 at the human amylin receptor (reference)
T1 construct: whole, on cells; also called hCTR; hCT
T1 sequence (looked up): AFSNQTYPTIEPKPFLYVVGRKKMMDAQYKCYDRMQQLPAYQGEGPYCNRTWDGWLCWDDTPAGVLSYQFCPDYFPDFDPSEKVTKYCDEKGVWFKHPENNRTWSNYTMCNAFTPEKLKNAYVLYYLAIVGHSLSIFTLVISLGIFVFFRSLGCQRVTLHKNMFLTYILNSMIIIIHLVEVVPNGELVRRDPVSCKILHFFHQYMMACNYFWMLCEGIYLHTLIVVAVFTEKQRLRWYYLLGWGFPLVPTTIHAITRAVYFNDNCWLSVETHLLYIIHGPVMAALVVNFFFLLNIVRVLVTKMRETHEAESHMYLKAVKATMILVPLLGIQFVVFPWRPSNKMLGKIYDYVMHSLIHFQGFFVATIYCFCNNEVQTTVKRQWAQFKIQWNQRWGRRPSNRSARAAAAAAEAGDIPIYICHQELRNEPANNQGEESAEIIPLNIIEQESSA
Summary of the method: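 Competition binding by SPA with cell membranes (35 ng/μL) and SPA beads in 50 mM Hepes pH 7.4 with 1 mM CaCl2, 5 mM MgCl2, 0.1% OA and 0.02% Tween20. Incubated 120 min at 25 °C with shaking, then counted.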

[2] = target: T1, human calcitonin receptor; test: SPA competition binding, membranes with human calcitonin receptor, displacement of 125I-calcitonin (Assay VII)
Summary of the method: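 BHK hCTR membranes 35 ng/μL + SPA beads 0.05 mg/well; buffer 50 mM Hepes pH 7.4, 1 mM CaCl2, 5 mM MgCl₂, 0.1% OA, 0.02% Tween20. 120 min, 25° C., shaking. Scintillation count; IC50 by one-site binding competition.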

Binder | Ratio hCT/hAmylin binding [1] | IC50 [2]
B1 | 10.8 | 12.9 nM
B2 | 49.9 | 21.3 nM
B3 | 41.3 | 34.5 nM
B4 | 50.3 | 48.8 nM
B5 | 69.7 | 30.9 nM
